Here are results for six molecules from patent publication US20190309074A1, “DEGLYCOSYLATED ANTIBODY SPECIFICALLY BINDING TO CLEC14A AND USES THEREOF” (WOORI TECHNOLOGIES CORPORATION, priority 2016, published 2019).

One data set relates to HUVECs. Kind of data set: HUVEC viability (cell counting Kit-8). Conditions: 2 days. The data set is classed as cell-based, human. The protocol:
In order to evaluate effects of deglyco C1 IgG on toxicity of endothelial cells, after treatment with deglyco C1 IgG, viability of HUVECs was measured. Viability was measured in accordance with the manufacturer's manual through cell counting Kit-8 (#CK04-13, Dojindo Laboratories, Kumamoto, Japan).

The subject of another data set is U87 human glioma. Kind of data set: U87 tumor growth. In kind it is in vivo. Conditions: measured weekly for one month.
Data set [1] concerns HCT116 human colorectal cancer cells. The data set can be described thus: Matrigel plug angiogenesis assay, CD31 microvessel density. In kind it is in vivo. Conditions: single dose of 5 mg/kg, 14 days. The procedure: (§1) Matrigel plug angiogenesis assay was conducted in the presence of deglyco C1 IgG or bevacizumab with a single dose of 5 mg/kg or the absence thereof using HCT116 human colorectal cancer cells and bevacizumab-applied HCT116 human colorectal cancer cells (HCT116 and HCT116/Beva). 14 days later, the Matrigel plug was removed, and immunohistochemistry was conducted on CD31 and microvascular markers. A microvessel density was measured by quantifying CD31 positive per field in an image each obtained by a confocal microscope.

The subject of another data set is HCT116/Beva cells. The description is as above. Conditions: single dose of 5 mg/kg, 14 days. In kind it is in vivo. The protocol: as §1
For data set [2], the system named is VEGF-dependent microvessel formation. Kind of data set: mouse Matrigel plug assay, VEGF-dependent microvessel formation. In kind it is in vivo. The protocol: In order to observe in vivo efficacies of deglyco C1 IgG on VEGF-dependent angiogenesis, a mouse Matrigel model was established, hemoglobin level was measured as a marker of microvessel formation, and inhibitory activities against microvessel formation of deglyco C1 IgG and bevacizumab were compared by a mouse Matrigel plug assay.

In the next data set the test system is CFPAC-1 cells. The data set can be described thus: tumor cell-derived Matrigel plug angiogenesis assay. The settings on record: single dose of 10 mg/kg, 2 weeks, nude mice. In kind it is in vivo, mouse. The protocol:
(§2) In order to investigate in vivo effects of deglyco C1 IgG on tumor angiogenesis, tumor cell-derived Matrigel plug angiogenesis assay was conducted on thymus-removed nude mice. SNU182- and CFPAC-1 cells and U87 human glioma cells containing Matrigel were transplanted into thymus-removed nude mice in the presence of deglyco C1 IgG and bevacizumab with a single dose of 10 mg/kg or in the absence thereof. 2 weeks later, the Matrigel plug was removed and the total hemoglobulin content of each group was measured with an ELISA reader.

Another data set has as its system SNU182 cells. Described as above. Conditions: single dose of 10 mg/kg, 2 weeks, nude mice. The data set is classed as in vivo, mouse. The procedure: as §2
A further data set deals with U87 human glioma cells. The data set is described as above. In kind it is in vivo, mouse. The settings on record: single dose of 10 mg/kg, 2 weeks, nude mice. The procedure:
as §2

The test system of data set [3] is VEGF-dependent blood vessel growth in rat aorta. Kind of data set: ex vivo rat aortic ring assay. The settings on record: cultured in combination with VEGF. The protocol:
In order to further investigate effects of deglyco C1 IgG on VEGF-dependent angiogenesis, ex vivo rat aortic ring assay was conducted in the presence or absence of deglyco C1 IgG and bevacizumab. Blood vessels were almost not grown in the rat aorta in endothelial basal medium (EBM), whereas most blood vessels were grown in the rat aorta under VEGF expression conditions.

Data set [4] addresses T1, hclec14a-ECD-myc (human, UniProt Q86T13 22-397).
T1 construct: extracellular domain; Purified protein; also called extracellular domain of human clec14a; not shown: myc tag
T1 sequence (looked up): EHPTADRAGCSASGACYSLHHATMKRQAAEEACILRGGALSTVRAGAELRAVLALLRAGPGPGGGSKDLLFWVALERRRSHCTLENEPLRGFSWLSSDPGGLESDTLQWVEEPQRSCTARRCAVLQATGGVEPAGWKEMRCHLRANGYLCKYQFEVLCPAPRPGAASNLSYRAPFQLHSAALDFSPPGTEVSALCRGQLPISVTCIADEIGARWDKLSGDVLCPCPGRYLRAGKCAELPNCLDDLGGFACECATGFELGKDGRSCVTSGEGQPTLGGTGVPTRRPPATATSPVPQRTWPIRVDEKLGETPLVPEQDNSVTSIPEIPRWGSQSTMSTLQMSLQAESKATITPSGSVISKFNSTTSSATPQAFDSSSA
Kind of data set: ELISA, hclec14a-CTLD-Fc-HRP with hclec14a-ECD. The protocol:
In addition, hclec14a-CTLD-Fc-HRP was incubated together with purified hclec14a-ECD in the presence of an increasing concentration of parent antibody IgG or deglyco C1 IgG, or in the absence thereof.
(In general: ELISA stands for enzyme-linked immunosorbent assay.)

Data set [5] deals with T2, human CLEC14a on human umbilical vein endothelial cells (HUVECs) (human, UniProt Q86T13 22-490).
T2 construct: whole, on cells; also called CLEC14a on HUVEC surfaces
T2 sequence (looked up): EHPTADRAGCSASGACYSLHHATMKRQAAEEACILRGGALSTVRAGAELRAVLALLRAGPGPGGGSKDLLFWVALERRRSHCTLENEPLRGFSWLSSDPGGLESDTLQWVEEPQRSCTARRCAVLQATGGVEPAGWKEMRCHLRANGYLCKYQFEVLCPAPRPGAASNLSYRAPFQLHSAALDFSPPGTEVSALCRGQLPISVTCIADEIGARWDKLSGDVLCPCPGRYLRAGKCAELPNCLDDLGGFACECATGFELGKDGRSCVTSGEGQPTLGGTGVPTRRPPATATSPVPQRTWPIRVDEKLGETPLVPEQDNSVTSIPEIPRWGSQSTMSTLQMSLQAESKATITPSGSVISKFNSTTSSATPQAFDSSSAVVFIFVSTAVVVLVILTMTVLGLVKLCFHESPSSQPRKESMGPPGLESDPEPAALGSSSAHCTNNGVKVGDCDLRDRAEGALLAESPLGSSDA
Kind of data set: cell ELISA on HUVECs coated on the plate. The protocol:
In order to analyze action mechanisms of deglyco C1 IgG at a molecule-scale, specifically, in angiogenesis, HUVECs were treated with hclec14a-CTLD-Fc-HRP (HRP-labeled hclec14a-CTLD-Fc) in the absence or presence of an increasing concentration of parent antibody IgG or deglyco C1 IgG.

In data set [6] the target is T2, human CLEC14a on human umbilical vein …. The data set can be described thus: flow cytometry on HUVEC. The protocol:
(§3) In order to identify cross-species reactivity of the optimized antibodies, HUVECs (human umbilical vein endothelial cells) and MAECs (mouse aortic endothelial cells) were each cultured, the two cell groups were treated with 20 ug/ml of the parent antibody (original C1), deglyco C1, and clones 1, 13 and 16, and whether or not binding ability exists on the surface of two types of cells was identified by flow cytometry.

The target in data set [7] is T3, mouse CLEC14a on mouse aortic endothelial cells (MAECs) (mouse, UniProt Q8VCP9 22-459).
T3 construct: whole, on cells
T3 sequence (looked up): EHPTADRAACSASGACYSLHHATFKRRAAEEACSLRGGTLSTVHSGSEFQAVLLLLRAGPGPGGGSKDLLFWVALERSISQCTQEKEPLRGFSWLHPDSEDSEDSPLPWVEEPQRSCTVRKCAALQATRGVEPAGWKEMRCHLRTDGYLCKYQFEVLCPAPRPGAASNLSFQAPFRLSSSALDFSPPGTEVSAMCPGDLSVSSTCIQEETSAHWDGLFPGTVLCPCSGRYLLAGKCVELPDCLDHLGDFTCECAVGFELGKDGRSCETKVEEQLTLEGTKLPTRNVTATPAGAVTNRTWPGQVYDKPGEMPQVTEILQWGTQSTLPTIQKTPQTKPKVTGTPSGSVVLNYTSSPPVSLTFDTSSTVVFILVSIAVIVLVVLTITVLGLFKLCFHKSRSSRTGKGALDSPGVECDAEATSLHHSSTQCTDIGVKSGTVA
Kind of data set: flow cytometry on MAEC. The procedure:
as §3
Background: In flow cytometry, cells or beads pass a laser one at a time.

For data set [8], the target named is T1, hclec14a-ECD-myc. The data set can be described thus: biolayer interferometry, Octet RED96.
The target in the next data set is T4, mclec14a-CTLD-Fc (mouse, UniProt Q8VCP9 31-172, limits assumed).
T4 construct: domain: C-type lectin-like domain (CTLD); also called mouse clec14a-CTLD-Fc; mouse CTLD; not shown: Fc
T4 sequence (looked up): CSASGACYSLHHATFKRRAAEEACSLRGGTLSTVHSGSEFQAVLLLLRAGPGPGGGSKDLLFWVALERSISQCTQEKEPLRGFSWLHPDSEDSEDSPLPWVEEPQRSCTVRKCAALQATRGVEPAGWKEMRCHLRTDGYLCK
The data set can be described thus: ELISA on mclec14a-CTLD-Fc.

Data set [9] deals with T1, hclec14a-ECD-myc. Kind of data set: biolayer interferometry (Octet RED96), curves at 62.5, 31.25, 15.625 and 7.8125 nM.

Take `O=c1[nH]cc(F)c(=O)[nH]1` [Opti 5-FU, 5-fluorouracil, reference compound]: in the data set with HUVECs, the “viability of HUVECs” value is “significantly reduced viability”.
Consider bevacizumab [reference compound], for which the “tumor size of U87 cells” value in the data set on U87 human glioma was “significantly reduces the tumor sizes”. The “microvessel formation (CD31 positive per field), HCT116” value in [1] is recorded as “significantly reduced microvessel formation ability”. Besides, the “microvessel formation (CD31 positive per field), HCT116/Beva” value in the data set on HCT116/Beva cells is reported as “not suppressed”. Besides, in data set [2], the “hemoglobin content (microvessel formation)” value is given as “significantly reduced a hemoglobin content”. The “hemoglobin content, CFPAC-1-derived” value with CFPAC-1 cells is on record as “significantly reduced hemoglobin”. Besides, in the data set on SNU182 cells, the “hemoglobin content, SNU182-derived” value is “significantly reduced hemoglobin”. Moreover, in the data set on U87 human glioma cells, the “hemoglobin content, U87-derived” value is reported as “significantly reduced hemoglobin”. Further, the “number of blood vessels grown in the rat aorta” value in [3] is “reduced the number of blood vessels grown in the rat aorta”.

B1: hclec14a-CTLD-Fc (Fc fusion, human, UniProt Q86T13 31-172, looked up)
chain: CSASGACYSLHHATMKRQAAEEACILRGGALSTVRAGAELRAVLALLRAGPGPGGGSKDLLFWVALERRRSHCTLENEPLRGFSWLSSDPGGLESDTLQWVEEPQRSCTARRCAVLQATGGVEPAGWKEMRCHLRANGYLCK
notes: domain: C-type lectin-like domain (CTLD); also called human clec14a-CTLD-Fc; human CTLD; not shown: Fc
For the molecule B1, the binding result (with hclec14a-ECD-myc [4]; in [5]) was “binds” in each case.

B2: Opti 13 (antibody, V domains shown)
VH: EVQLVESGGGLVQPGGSLRLSCAVSGFTFSGYDMSWIRQAPGKGLEWVAGIYPDGGNTYYADSVKGRFTISRDDSKNTFYLQMNSLRAEDTAVYYCARGAMEQVLGPFDLWGQGTLVTVSS
VL: DIQLTQSPSSLSASVGDRVTITCTGSSSNIGRCGVTWYQQKPGKAPKLLIYADSHRPSGVPSRFSGSGSGTDFTLTISSLQPEDFATYYCGAWDDSLSGYVFGQGTKVEIKR
notes: IgG from HEK293 cells; also called clone 13; optimized antibody clone 13
As for B2, the binding result in data set [6] and in data set [7] was “binds” in each case.

B3: deglyco C1 IgG (antibody, V domains shown)
VH: EVQLVESGGGLVQPGGSLRLSCAVSGFTFSGYDMSWIRQAPGKGLEWVAGIYPDGGNTYYADSVKGRFTISRDDSKNTFYLQMNSLRAEDTAVYYCARGATWWVLGPFDYWGQGTLVTVSS
VL: DIQLTQSPSSLSASVGDRVTITCTGSSSNIGRCGVTWYQQKPGKAPKLLIYADSHRPSGVPSRFSGSGSGTDFTLTISSLQPEDFATYYCGAWDDSLSGYVFGQGTKVEIKR
notes: IgG expressed in HEK293 cells; In some assays conjugated with HRP; also called Deg C1; deglyco C1 IgG-HRP (HRP-conjugated form)
As for B3, in the data set with hclec14a-ECD-myc [8], the equilibrium dissociation constant (Kd) came to 6 nM. Also, the binding result with mclec14a-CTLD-Fc was “binds”. For the same molecule, the binding result in data set [7] was “binds”. Moreover, in the data set with hclec14a-ECD-myc [9], binding was put at a Kd of 6.07 nM, the koff is 0.000297 s⁻¹ and the kon worked out at 49000 M⁻¹ s⁻¹.

B4: Opti 1 (antibody, V domains shown)
VH: EVQLVESGGGLVQPGGSLRLSCAVSGFTFSGYDMSWIRQAPGKGLEWVAGIYPDGGNTYYADSVKGRFTISRDDSKNTFYLQMNSLRAEDTAVYYCARGAATKVLGKFDCWGQGTLVTVSS
VL: DIQLTQSPSSLSASVGDRVTITCTGSSSNIGRCGVTWYQQKPGKAPKLLIYADSHRPSGVPSRFSGSGSGTDFTLTISSLQPEDFATYYCGAWDDSLSGYVFGQGTKVEIKR
notes: IgG from HEK293 cells; also called optimized antibody clone 1
Regarding B4, the binding result in [6] and in data set [7] was “binds” in each case.

By Kd is commonly meant the equilibrium constant for the complex coming apart. Read a high Kd as lower affinity. In general, koff refers to a measure of how fast the partners let go of each other. As a reminder, the kon is the rate constant with which the complex forms. Lower therefore signals slower complex formation.
